The source of these data is patent US11547739B2, “Peptides and methods related to ICOS signaling” (priority 2015, dated 2023).

One series deals with Tbk1 transcript. Kind of series: In vivo knockdown efficiency by quantitative PCR in sorted transduced cells. The settings on record: sorted shTbk1+CD4+ T cells. Details: species or system mouse. As for the experimental part:
Isolation of mRNA, cDNA synthesis and real-time PCR. Total RNA was extracted from sorted CD4^+ Ametrine- and CD4^+ Ametrine^+ cells using the RNeasy kit (Qiagen). RNA was used to synthesize cDNA by the SuperScript III FirstStrand cDNA synthesis kit (Life Technologies). […]; Relative gene expression levels were determined in triplicates, calculated using the 2-° Act method and normalized to the level of ACTB.

The next series has as its system Tfh cells. The settings on record: mouse, in vivo.
Series [1] concerns GC B cells and plasma cells. It is filed as in vivo, mouse. The settings on record: KLH-gp61 in alum, 10 d.
Series [2] deals with T1, TBK1 (Homo sapiens, UniProt Q9UHD2).
T1 sequence (Q9UHD2 1-729): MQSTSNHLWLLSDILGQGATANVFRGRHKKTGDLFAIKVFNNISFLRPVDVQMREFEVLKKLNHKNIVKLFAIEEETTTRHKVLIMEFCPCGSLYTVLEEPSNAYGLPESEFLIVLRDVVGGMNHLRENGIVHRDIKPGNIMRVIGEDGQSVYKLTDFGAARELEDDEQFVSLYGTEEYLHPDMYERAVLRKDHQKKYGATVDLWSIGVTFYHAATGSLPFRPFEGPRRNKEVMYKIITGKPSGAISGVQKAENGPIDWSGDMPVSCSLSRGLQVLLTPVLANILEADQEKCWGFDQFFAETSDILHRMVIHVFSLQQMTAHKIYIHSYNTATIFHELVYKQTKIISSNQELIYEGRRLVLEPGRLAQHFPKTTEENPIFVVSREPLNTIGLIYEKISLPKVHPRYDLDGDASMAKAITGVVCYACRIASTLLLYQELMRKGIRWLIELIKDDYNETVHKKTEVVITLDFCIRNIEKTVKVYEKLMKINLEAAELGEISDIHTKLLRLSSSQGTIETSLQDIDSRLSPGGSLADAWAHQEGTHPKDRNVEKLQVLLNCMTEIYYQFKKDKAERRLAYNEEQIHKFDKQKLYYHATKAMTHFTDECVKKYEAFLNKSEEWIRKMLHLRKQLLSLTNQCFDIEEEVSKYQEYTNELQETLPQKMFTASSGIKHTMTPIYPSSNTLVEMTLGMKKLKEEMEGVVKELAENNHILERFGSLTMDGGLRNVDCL
Kind of series: ICOS immunoprecipitation and immunoblotting in transfected Jurkat (JTAg) T cells. The class given is binding. Details: endogenous in cells; host or cells: Jurkat JTAg T cells transfected with ICOS plasmids. To be noted: Jurkat (JTAg) cells stimulated with anti-CD3 plus -ICOS mAbs. As for the experimental part: (§1) Immunoprecipitation and immunoblotting. The human leukemic Jurkat T cell line, JTAg, was previously described (Li, J et al. J Immunol 2013, 191(1): 200-207; Rolf J et al., J Immunol 2010, 185(7): 4042-4052) and the HEK 293T cell line was obtained from ATCC. These cell lines have not been recently STR profiled but tested negative for mycoplasma contamination. JTAg cells in logarithmic growth phase were transfected with plasmid DNAs by electroporation and incubated for 24 hours. Transfection of HEK293T cells was carried out via liposomes-mediated transfection with plasmid DNAs. For experiments using primary mouse T cells, purified CD4+ T cells were activated in vitro with anti-mouse CD3 (clone 145-2C11) and CD28 (clone 37.51) for 48 hours prior to resting in the presence of IL-2 for another 48 hours. Transfected JTAg cells and preactivated mouse CD4^+ T cells were stimulated with anti-CD3 and anti-ICOS (clone C398.4A) monoclonal antibodies (mAbs) in the presence of a cross-linking antibody (Ab) for 2 minutes. […] The intensity of bands was measured using the ImageJ software (NIH). To determine the ratio of TBK1 to p85a, the band intensity on IP blots and WCL blots were measured for TBK1 and p85a, respectively, and the ratio was expressed as (IP TBK1)/(WCL TBK1): (IP p85a)/(WCL p85a).

The target in series [3] is T1, TBK1. Description: Anti-FLAG immunoprecipitation of WT or mutated TRAF2/TRAF3 in HEK293T cells. The class given is binding. Set-up: endogenous in cells. The settings on record: FLAG-tagged TRAF in HEK293T cells. As for the experimental part:
as §1

In the series with Tbk1 transcript, “shTbk1 (guide AAGACATAAAGTGCTTATTATG; expressed or natural sequence)” showed a Tbk1 transcript reduced of roughly 80%.

B1: WT ICOS (protein)
chain: EINGSANYEMFIFHNGGVQILCKYPDIVQQFKMQLLKGGQILCDLTKTKGSGNTVSIKSLKFCHSQLSNNSVSFFLYNLDHSHANYYFCNLSIFDPPPFKVTLTGGYLHIYESQLCCQLKFWLPIGCAAFVVVCILGCILICWLTKKKYSSSVHDPNGEYMFMRAVNTAKKSRLTDVTL
As for B1, in the series on Tfh cells, the “CXCR5+SLAMlo Tfh cell population” value is on record as “differentiated”, the “differentiation of CXCR5+PD1hi GC Tfh cells” value is on record as “restored” and the “nascent CXCR5+Bcl6+ Tfh cells” value is listed as “able to differentiate”. Besides, the “B cell differentiation (Fas+GL7+ GC B cells and class-switched IgD-CD138+ plasma cells)” value in series [1] was “supported the differentiation”. Besides, the “interaction with endogenous TBK1 in ICOS IPs” value in the series with TBK1 [2] is on record as “interacted strongly”.

B2: WT TRAF2 (protein)
chain: MAAASVTPPGSLELLQPGFSKTLLGTKLEAKYLCSACRNVLRRPFQAQCGHRYCSFCLASILSSGPQNCAACVHEGIYEEGISILESSSAFPDNAARREVESLPAVCPSDGCTWKGTLKEYESCHEGRCPLMLTECPACKGLVRLGEKERHLEHECPERSLSCRHCRAPCCGADVKAHHEVCPKFPLTCDGCGKKKIPREKFQDHVKTCGKCRVPCRFHAIGCLETVEGEKQQEHEVQWLREHLAMLLSSVLEAKPLLGDQSHAGSELLQGCESLEKKTATFENIVCVLNREVERVAMTAEACSRQHRLDQDKIEAPSSKVQQLERSIGLKDLAMADLEQKVSEMEASTYDGVFIWKISDFARKRQEAVAGRIPAIFSPAFYTRRYGYKMCLRIYLNGDGTGRGTHLSLFFVVMKGPNDALLRWPFNQKVTLMLLDQNNREHVIDAFRPDVTSSSFQRPVNDMNIASGCPLFCPVSKMEAKDSYVRDDAIFIKAIVDLTGL
modifications: left off: small tags and cut ends
Take B2: in the series with TBK1 [3], the “interaction with TBK1” value is recorded as “interacted strongly”.

B3: TRAF3 (protein, UniProt Q13114 1-568, looked up)
TNF receptor-associated …: MESSKKMDSPGALQTNPPLKLHTDRSAGTPVFVPEQGGYKEKFVKTVEDKYKCEKCHLVLCSPKQTECGHRFCESCMAALLSSSSPKCTACQESIVKDKVFKDNCCKREILALQIYCRNESRGCAEQLMLGHLLVHLKNDCHFEELPCVRPDCKEKVLRKDLRDHVEKACKYREATCSHCKSQVPMIALQKHEDTDCPCVVVSCPHKCSVQTLLRSELSAHLSECVNAPSTCSFKRYGCVFQGTNQQIKAHEASSAVQHVNLLKEWSNSLEKKVSLLQNESVEKNKSIQSLHNQICSFEIEIERQKEMLRNNESKILHLQRVIDSQAEKLKELDKEIRPFRQNWEEADSMKSSVESLQNRVTELESVDKSAGQVARNTGLLESQLSRHDQMLSVHDIRLADMDLRFQVLETASYNGVLIWKIRDYKRRKQEAVMGKTLSLYSQPFYTGYFGYKMCARVYLNGDGMGKGTHLSLFFVIMRGEYDALLPWPFKQKVTLMLMDQGSSRRHLGDAFKPDPNSSSFKKPTGEMNIASGCPVFVAQTVLENGTYIKDDTIFIKVIVDTSDLPDP
As to B3, the “interaction with TBK1” value with TBK1 [3] was “interacted strongly”.
